Source: EP3007726B1

Target: tau of P301L tau transgenic mice (4R2N human tau mutated at P301L) (human) (UniProt P10636)
Assay: free-tau ELISA on CSF of P301L mice treated with IPN002, against control IgG (Figure 33)

Chain of UniProt P10636 (P10636 other isoform, or with tags, fused parts or gaps P301L P301L P301L P301L limits assumed): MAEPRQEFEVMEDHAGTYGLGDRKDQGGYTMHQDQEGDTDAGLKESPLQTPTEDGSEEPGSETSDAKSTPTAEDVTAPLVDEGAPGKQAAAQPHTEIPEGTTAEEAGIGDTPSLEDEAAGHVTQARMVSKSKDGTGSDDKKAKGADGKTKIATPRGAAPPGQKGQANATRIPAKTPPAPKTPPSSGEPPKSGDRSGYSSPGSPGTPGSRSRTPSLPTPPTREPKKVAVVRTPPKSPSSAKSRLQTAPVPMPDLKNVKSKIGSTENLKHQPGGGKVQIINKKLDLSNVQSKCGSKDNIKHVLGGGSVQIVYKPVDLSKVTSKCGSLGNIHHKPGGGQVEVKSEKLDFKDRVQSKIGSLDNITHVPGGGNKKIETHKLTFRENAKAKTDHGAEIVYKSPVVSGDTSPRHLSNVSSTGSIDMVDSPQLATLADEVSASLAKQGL

- reduction in levels of the Free Tau (of IPN002) signal in CSF: 96%
B1: IPN002 (antibody, V domains shown)
VH: EVHLVESGGALVKPGGSLKLSCAASGFSFSKYGMSWVRQTPDKRLEWVATISSSGSRTYYPDSVKGQFTISRDNAKNTLYLQMSSLKSEDTAMYYCSISWDGAMDYWGQGTSVTVSS
VL: DVLMTQTPLSLPVSLGDQASISCKSSQSIVHSNGNTYLEWYLQKPGQSPKLLVYKVSNRFSGVPDRFSGSGSGTDFTLKISRVEAEDLGTYYCFQGSLVPWAFGGGTKLEIK
